Assay results reported in patent US20250313644A1 (FUTUREGEN BIOPHARMACEUTICAL BEIJING, published 2025).

How the values were obtained:
TNFα [1] = biological target: T1, TNFα (UniProt P01375 77-233); assay: ELISA, coated TNF-α, Ab 6.25 nM
Method: (§1) In this experiment, ELISA was used to assess the binding ability of monoclonal antibodies to TL1A homologous molecules. Representative members of the TNF ligand superfamily, TNFα, LT-α, LIGHT and FASL, were selected for binding testing. 1 μg/mL of TNFα, LT-α, LIGHT or FASL was coated in a microplate with a carbonate buffer solution at pH=9.6, 100 μL per well, and the microplate was incubated at 4° C. overnight. The microplate was then washed 5 times with PBST, blocked with 300 μL/well of PBS containing 1% BSA, and was incubated at room temperature for 1 hour. After washing 5 times with PBST, about 100 μL each of the M701 monoclonal antibodies and the control antibodies were added to each well, and were incubated at room temperature for 1 hour. After washing 5 times with PBST, 100 μL of HRP-anti-human Fc (Sino Biological) was added to each well, and was incubated at room temperature for 1 hour. After washing 5 times with PBST, 100 μL of colorimetric substrate TMB was added to each well, and color was developed at room temperature for 10 minutes, followed by addition of 1M sulfuric acid to terminate the reaction. OD450 nm was recorded on a microplate reader.

TNFα [2] = biological target: T1, TNFα; assay: ELISA, coated TNFα
Method: as §1

LT-α [3] = biological target: T2, LT-α (UniProt P01374 35-205); assay: ELISA, coated LT-α, Ab 6.25 nM
T2 sequence (looked up): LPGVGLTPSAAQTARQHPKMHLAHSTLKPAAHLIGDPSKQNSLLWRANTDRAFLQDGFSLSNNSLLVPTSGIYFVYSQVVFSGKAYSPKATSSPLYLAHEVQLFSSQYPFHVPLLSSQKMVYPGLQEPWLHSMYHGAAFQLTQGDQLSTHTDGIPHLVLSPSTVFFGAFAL
Method: as §1

TNFα [4] = biological target: T1, TNFα; assay: ELISA, coated TNF-α, Ab 0.391 nM
Method: as §1

FASL [5] = biological target: T3, FASL (UniProt P48023 134-281, limits assumed); assay: ELISA, coated FASL, Ab 1.563 nM
T3 sequence (looked up): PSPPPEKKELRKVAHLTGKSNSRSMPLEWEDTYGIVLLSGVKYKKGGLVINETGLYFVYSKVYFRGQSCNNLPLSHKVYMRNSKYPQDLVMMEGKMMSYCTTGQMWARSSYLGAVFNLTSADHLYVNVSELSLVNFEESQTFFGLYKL
Method: as §1

TNFα [6] = biological target: T1, TNFα; assay: ELISA, coated TNF-α, Ab 0.000 nM (blank)
Method: as §1

human TL1A (HuTL1A) [7] = biological target: T4, human TL1A (HuTL1A) (human, UniProt O95150 57-251, limits assumed, biotin-labelled in some assays (site not stated)); assay: cell-based or functional assay
T4 sequence: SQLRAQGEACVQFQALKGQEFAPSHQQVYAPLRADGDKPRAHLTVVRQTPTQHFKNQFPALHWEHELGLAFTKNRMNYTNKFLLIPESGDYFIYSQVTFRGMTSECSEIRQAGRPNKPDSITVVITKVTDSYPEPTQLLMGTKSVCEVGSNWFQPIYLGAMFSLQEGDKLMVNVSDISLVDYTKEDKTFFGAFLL

LT-α [8] = biological target: T2, LT-α; assay: ELISA, coated LT-α, Ab 25 nM
Method: as §1

LIGHT [9] = biological target: T5, LIGHT (UniProt O43557 74-240, limits assumed); assay: ELISA, coated LIGHT, Ab 6.25 nM
T5 sequence (O43557 74-240 limits assumed): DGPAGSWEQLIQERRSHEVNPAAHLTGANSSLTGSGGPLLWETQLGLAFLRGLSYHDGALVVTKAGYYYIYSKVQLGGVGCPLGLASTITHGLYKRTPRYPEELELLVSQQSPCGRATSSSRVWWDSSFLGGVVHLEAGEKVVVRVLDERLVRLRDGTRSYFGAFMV
Method: as §1

TNFα [10] = biological target: T1, TNFα; assay: ELISA, coated TNF-α, Ab 25 nM
Method: as §1

FASL [11] = biological target: T3, FASL; assay: ELISA, coated FASL, Ab 6.25 nM
Method: as §1

LIGHT [12] = biological target: T5, LIGHT; assay: ELISA, coated LIGHT, Ab 0.391 nM
Method: as §1

LIGHT [13] = biological target: T5, LIGHT; assay: ELISA, coated LIGHT, Ab 25 nM
Method: as §1

TNFα [14] = biological target: T1, TNFα; assay: ELISA, coated TNF-α, Ab 100 nM
Method: as §1

FASL [15] = biological target: T3, FASL; assay: ELISA, coated FASL, Ab 100 nM
Method: as §1

FASL [16] = biological target: T3, FASL; assay: ELISA, coated FASL
Method: as §1

LT-α [17] = biological target: T2, LT-α; assay: ELISA, coated LT-α, Ab 0.391 nM
Method: as §1

human TL1A (HuTL1A) [18] = biological target: T4, human TL1A (HuTL1A); assay: DLS, antigen and antibody mixed in equal moles
Method: 60 μM antigen and antibody was mixed in equal moles, incubated at room temperature for 30 minutes, and then the molecular size was detected using UNCLE or SEC.

LIGHT [19] = biological target: T5, LIGHT; assay: ELISA, coated LIGHT, Ab 1.563 nM
Method: as §1

LT-α [20] = biological target: T2, LT-α; assay: ELISA, coated LT-α, Ab 0.000 nM (blank)
Method: as §1

LT-α [21] = biological target: T2, LT-α; assay: ELISA, coated LT-α
Method: as §1

FASL [22] = biological target: T3, FASL; assay: ELISA, coated FASL, Ab 25 nM
Method: as §1

human TL1A (HuTL1A) [23] = biological target: T4, human TL1A (HuTL1A); assay: cell-based or functional assay; remark: listed apart in the source
LT-α [24] = biological target: T2, LT-α; assay: ELISA, coated LT-α, Ab 1.563 nM
Method: as §1

LIGHT [25] = biological target: T5, LIGHT; assay: ELISA, coated LIGHT, Ab 0.000 nM (blank)
Method: as §1

LIGHT [26] = biological target: T5, LIGHT; assay: ELISA, coated LIGHT
Method: as §1

FASL [27] = biological target: T3, FASL; assay: ELISA, coated FASL, Ab 0.000 nM (blank)
Method: as §1

TNFα [28] = biological target: T1, TNFα; assay: ELISA, coated TNF-α, Ab 1.563 nM
Method: as §1

LT-α [29] = biological target: T2, LT-α; assay: ELISA, coated LT-α, Ab 100 nM
Method: as §1

FASL [30] = biological target: T3, FASL; assay: ELISA, coated FASL, Ab 0.391 nM
Method: as §1

LIGHT [31] = biological target: T5, LIGHT; assay: ELISA, coated LIGHT, Ab 100 nM
Method: as §1

T1 sequence (P01375 77-233 limits assumed): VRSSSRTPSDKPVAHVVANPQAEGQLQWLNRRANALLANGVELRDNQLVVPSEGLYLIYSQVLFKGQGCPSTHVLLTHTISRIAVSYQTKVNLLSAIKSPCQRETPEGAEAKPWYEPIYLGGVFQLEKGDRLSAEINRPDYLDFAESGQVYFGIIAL

B1: M701-4019 (antibody, human IgG1, kappa, L234A L235A, V domains shown)
VH: ELQLQESGPGLVKPSETLSLTCAVSGVSFTDYHWAWIRQPPGKGLEWIGDINHRGHTNYNPSLKSRVTVSIDTSKNQFSLKLSSVTAADTAVYYCARDYPNFIYDYWGQGTLVTVSS
VL: DIQLTQSPGTLSLSPGERATLSCRASQSVSNYLAWYQQKPGQAPRLLIYGASRRATGIPARFSGSGSGTDFTLTISSLEPEDFAVYYCQQYAASPLTFGQGTKVEIKR
notes: Fc-engineered IgG1
For B1, the OD450 nm (TNFα [1]) was 0.0591, the binding result (TNFα [2]) was “no binding (tested: 100 nM)” and the OD450 nm (LT-α [3]) was 0.0566. It also gave an OD450 nm (TNFα [4]) of 0.0567, an OD450 nm (FASL [5]) of 0.0514 and an OD450 nm (TNFα [6]) of 0.0748. The “IC50 (read off the curve); IFN-γ of human T cells with IL-12, IL-18 and exogenous human TL1A” value (human TL1A (HuTL1A) [7]) was roughly 200 pM, the OD450 nm (LT-α [8]) was 0.0627 and the OD450 nm (LIGHT [9]) was 0.0572. The OD450 nm (TNFα [10]) was 0.066, the OD450 nm (FASL [11]) was 0.0529 and the OD450 nm (LIGHT [12]) was 0.0528. The OD450 nm (LIGHT [13]) was 0.061, the OD450 nm (TNFα [14]) was 0.105 and the OD450 nm (FASL [15]) was 0.0886. The binding result (FASL [16]) was “no binding (tested: 100 nM)”, the OD450 nm (LT-α [17]) was 0.0572 and the “Ave Z-dia (nm) of the antigen-antibody complex” value (human TL1A (HuTL1A) [18]) was 18.5 nm. For the same binder, the OD450 nm (LIGHT [19]) was 0.0539, the OD450 nm (LT-α [20]) was 0.0648 and the binding result (LT-α [21]) was “no binding (tested: 100 nM)”. The OD450 nm (FASL [22]) was 0.0612, the “IC50 (read off the curve); SEAP reporter in HEK293T/DR3-NFκB cells with soluble TL1A, OD655” value (human TL1A (HuTL1A) [23]) was roughly 1000 pM and the OD450 nm (LT-α [24]) was 0.0602. For the same binder, the OD450 nm (LIGHT [25]) was 0.0563, the binding result (LIGHT [26]) was “no binding (tested: 100 nM)” and the OD450 nm (FASL [27]) was 0.0602. The OD450 nm (TNFα [28]) was 0.057, the OD450 nm (LT-α [29]) was 0.067 and the OD450 nm (FASL [30]) was 0.0506. The OD450 nm (LIGHT [31]) was 0.0942.
